Target: human Toll-like receptor 2 expressed on HEK-Blue hTLR2 cells (human) (UniProt O60603)
Experiment: flow cytometry on cells

Chain of UniProt O60603 (O60603 21-784): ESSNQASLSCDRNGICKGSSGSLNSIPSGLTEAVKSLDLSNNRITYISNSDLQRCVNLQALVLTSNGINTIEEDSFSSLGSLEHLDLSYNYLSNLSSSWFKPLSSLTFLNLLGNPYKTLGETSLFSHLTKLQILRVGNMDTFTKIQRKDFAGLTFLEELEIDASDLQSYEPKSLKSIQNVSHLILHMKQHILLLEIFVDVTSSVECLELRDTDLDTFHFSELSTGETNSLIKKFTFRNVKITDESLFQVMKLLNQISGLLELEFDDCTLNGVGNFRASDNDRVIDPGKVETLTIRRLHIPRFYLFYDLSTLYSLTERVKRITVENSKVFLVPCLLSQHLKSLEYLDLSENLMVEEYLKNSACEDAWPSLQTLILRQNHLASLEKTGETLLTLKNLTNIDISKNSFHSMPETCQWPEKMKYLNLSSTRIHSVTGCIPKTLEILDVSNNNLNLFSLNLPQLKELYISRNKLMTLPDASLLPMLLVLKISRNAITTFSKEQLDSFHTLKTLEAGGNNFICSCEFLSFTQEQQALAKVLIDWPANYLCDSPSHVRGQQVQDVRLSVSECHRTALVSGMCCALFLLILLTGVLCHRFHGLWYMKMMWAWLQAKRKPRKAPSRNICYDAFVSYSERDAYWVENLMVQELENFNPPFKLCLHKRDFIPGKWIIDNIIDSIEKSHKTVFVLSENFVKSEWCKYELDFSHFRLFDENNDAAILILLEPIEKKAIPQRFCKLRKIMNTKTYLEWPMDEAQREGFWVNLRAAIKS

Q: Which mean fluorescence intensity does the source give for “fluorescently labelled recombinant ancillary pilin 1 (rAP1 labelled with Red Mega 485) (natural protein)” here?
A: 1490
